# Data reported in the Human Domainome abundance scans (Beltran et al. 2025).
# ± gives the uncertainty stated by the source.
# B1: Transcriptional regulator ERG, residues 117 to 197; numbered along this chain, P11308 (parent)
# chain: NMTTNERRVIVPADPTLWSTDHVRQWLEWAVKEYGLPDVNILLFQNIDGKELCKMTKDDFQRLTPSYNADILLSHLHYLRE
# Variants of: B1
# Experiment: abundance fitness (aPCA) (normalised: wild type 0, dead -1); higher = more abundant; growth selection in yeast, the domain comes from the species named
# Conditions: Homo sapiens
row,Variant,abundance fitness
1,NMTTNERRVIVPADPTLWSTDHVRQWLKWAVKEYGLPDVNILLFQNIDGKELCKMTKDDFQRLTPSYNADILLSHLHYLRE [E28K],-0.041 ± 0.064
2,NMTTNERRVIVPADPTLWSTDHVRQWLVWAVKEYGLPDVNILLFQNIDGKELCKMTKDDFQRLTPSYNADILLSHLHYLRE [E28V],-0.04 ± 0.042
3,NMTTNERRVIVPADPTLWSTDHVRQWLLWAVKEYGLPDVNILLFQNIDGKELCKMTKDDFQRLTPSYNADILLSHLHYLRE [E28L],-0.09 ± 0.049
4,NMTTNERRVIVPADPTLWSTDHVRQWLDWAVKEYGLPDVNILLFQNIDGKELCKMTKDDFQRLTPSYNADILLSHLHYLRE [E28D],-0.146 ± 0.091
5,NMTTNERRVIVPADPTLWSTDHVRQWLFWAVKEYGLPDVNILLFQNIDGKELCKMTKDDFQRLTPSYNADILLSHLHYLRE [E28F],-0.24 ± 0.13
6,NMTTNERRVIVPADPTLWSTDHVRQWLQWAVKEYGLPDVNILLFQNIDGKELCKMTKDDFQRLTPSYNADILLSHLHYLRE [E28Q],-0.062 ± 0.068
7,NMTTNERRVIVPADPTLWSTDHVRQWLIWAVKEYGLPDVNILLFQNIDGKELCKMTKDDFQRLTPSYNADILLSHLHYLRE [E28I],-0.108 ± 0.092
8,NMTTNERRVIVPADPTLWSTDHVRQWLTWAVKEYGLPDVNILLFQNIDGKELCKMTKDDFQRLTPSYNADILLSHLHYLRE [E28T],-0.031 ± 0.061
9,NMTTNERRVIVPADPTLWSTDHVRQWLPWAVKEYGLPDVNILLFQNIDGKELCKMTKDDFQRLTPSYNADILLSHLHYLRE [E28P],-0.534 ± 0.13
10,NMTTNERRVIVPADPTLWSTDHVRQWLCWAVKEYGLPDVNILLFQNIDGKELCKMTKDDFQRLTPSYNADILLSHLHYLRE [E28C],-0.037 ± 0.066
11,NMTTNERRVIVPADPTLWSTDHVRQWLHWAVKEYGLPDVNILLFQNIDGKELCKMTKDDFQRLTPSYNADILLSHLHYLRE [E28H],0.005 ± 0.12
12,NMTTNERRVIVPADPTLWSTDHVRQWLSWAVKEYGLPDVNILLFQNIDGKELCKMTKDDFQRLTPSYNADILLSHLHYLRE [E28S],-0.099 ± 0.047
13,NMTTNERRVIVPADPTLWSTDHVRQWLAWAVKEYGLPDVNILLFQNIDGKELCKMTKDDFQRLTPSYNADILLSHLHYLRE [E28A],-0.022 ± 0.045
14,NMTTNERRVIVPADPTLWSTDHVRQWLRWAVKEYGLPDVNILLFQNIDGKELCKMTKDDFQRLTPSYNADILLSHLHYLRE [E28R],-0.095 ± 0.039
15,NMTTNERRVIVPADPTLWSTDHVRQWLYWAVKEYGLPDVNILLFQNIDGKELCKMTKDDFQRLTPSYNADILLSHLHYLRE [E28Y],-0.093 ± 0.087
16,NMTTNERRVIVPADPTLWSTDHVRQWLWWAVKEYGLPDVNILLFQNIDGKELCKMTKDDFQRLTPSYNADILLSHLHYLRE [E28W],-0.16 ± 0.058
17,NMTTNERRVIVPADPTLWSTDHVRQWLNWAVKEYGLPDVNILLFQNIDGKELCKMTKDDFQRLTPSYNADILLSHLHYLRE [E28N],0.012 ± 0.081

row,Variant,abundance fitness
1,NMTTNERRVIVPADPTLWSTDHVRQWLELAVKEYGLPDVNILLFQNIDGKELCKMTKDDFQRLTPSYNADILLSHLHYLRE [W29L],-0.168 ± 0.054
2,NMTTNERRVIVPADPTLWSTDHVRQWLEMAVKEYGLPDVNILLFQNIDGKELCKMTKDDFQRLTPSYNADILLSHLHYLRE [W29M],-0.038 ± 0.055
3,NMTTNERRVIVPADPTLWSTDHVRQWLESAVKEYGLPDVNILLFQNIDGKELCKMTKDDFQRLTPSYNADILLSHLHYLRE [W29S],0.11 ± 0.044
4,NMTTNERRVIVPADPTLWSTDHVRQWLEAAVKEYGLPDVNILLFQNIDGKELCKMTKDDFQRLTPSYNADILLSHLHYLRE [W29A],0.101 ± 0.042
5,NMTTNERRVIVPADPTLWSTDHVRQWLEGAVKEYGLPDVNILLFQNIDGKELCKMTKDDFQRLTPSYNADILLSHLHYLRE [W29G],0.111 ± 0.03
6,NMTTNERRVIVPADPTLWSTDHVRQWLEFAVKEYGLPDVNILLFQNIDGKELCKMTKDDFQRLTPSYNADILLSHLHYLRE [W29F],-0.098 ± 0.11
7,NMTTNERRVIVPADPTLWSTDHVRQWLEDAVKEYGLPDVNILLFQNIDGKELCKMTKDDFQRLTPSYNADILLSHLHYLRE [W29D],0.21 ± 0.057
8,NMTTNERRVIVPADPTLWSTDHVRQWLERAVKEYGLPDVNILLFQNIDGKELCKMTKDDFQRLTPSYNADILLSHLHYLRE [W29R],-0.006 ± 0.032
9,NMTTNERRVIVPADPTLWSTDHVRQWLEPAVKEYGLPDVNILLFQNIDGKELCKMTKDDFQRLTPSYNADILLSHLHYLRE [W29P],-1.08 ± 0.31
10,NMTTNERRVIVPADPTLWSTDHVRQWLEEAVKEYGLPDVNILLFQNIDGKELCKMTKDDFQRLTPSYNADILLSHLHYLRE [W29E],0.127 ± 0.045
11,NMTTNERRVIVPADPTLWSTDHVRQWLEHAVKEYGLPDVNILLFQNIDGKELCKMTKDDFQRLTPSYNADILLSHLHYLRE [W29H],0.082 ± 0.085
12,NMTTNERRVIVPADPTLWSTDHVRQWLEKAVKEYGLPDVNILLFQNIDGKELCKMTKDDFQRLTPSYNADILLSHLHYLRE [W29K],0.048 ± 0.058
13,NMTTNERRVIVPADPTLWSTDHVRQWLECAVKEYGLPDVNILLFQNIDGKELCKMTKDDFQRLTPSYNADILLSHLHYLRE [W29C],0.017 ± 0.06
14,NMTTNERRVIVPADPTLWSTDHVRQWLEIAVKEYGLPDVNILLFQNIDGKELCKMTKDDFQRLTPSYNADILLSHLHYLRE [W29I],-0.07 ± 0.083
15,NMTTNERRVIVPADPTLWSTDHVRQWTEWAVKEYGLPDVNILLFQNIDGKELCKMTKDDFQRLTPSYNADILLSHLHYLRE [L27T],-0.628 ± 0.098
16,NMTTNERRVIVPADPTLWSTDHVRQWYEWAVKEYGLPDVNILLFQNIDGKELCKMTKDDFQRLTPSYNADILLSHLHYLRE [L27Y],-0.584 ± 0.15
17,NMTTNERRVIVPADPTLWSTDHVRQWWEWAVKEYGLPDVNILLFQNIDGKELCKMTKDDFQRLTPSYNADILLSHLHYLRE [L27W],-0.891 ± 0.14
